This is an account of results in patent publication US11395853B2, “Biomimetic drug delivery of an immunomodulatory agent for the treatment of ocular conditions” (University of Pittsburgh-Of the Commonwealth System of …, priority 2016, dated 2022).

In assay [1] the test system is ConA-induced DED mice. In words: Aqueous tear production, phenol red cotton thread, ConA-induced DED (Example 1). The class given is in vivo, Balb/c mice. The note with it: one week after ConA into lacrimal gland; MPs 0.5 mg/20 μl co-injected with ConA; soluble CCL22 2.5 μg in 20 μl; anti-GITR 500 μg i.p. 5 days prior. The protocol:
(§1) Fabrication of Microparticles—Poly (lactic-co-glycolic) acid (PLGA) microparticles encapsulating recombinant mouse CCL22 (R&D Systems, Minneapolis Minn.) were made according to a previously reported water-oil-water double emulsion technique. Glowacki, A. J. et al. Proc. Natl. Acad. Sci. U.S.A 110, 18525-30 (2013). Briefly, 200 mg of RG502H poly(D,L-lactide-co-glycolide) polymer (Sigma Aldrich, St. Louis, Mo.) was dissolved in 4 ml of dichloromethane and vortexed. Then […], of an aqueous solution containing 5 μg of recombinant mouse CCL22 and 2 mg of BSA (Sigma Aldrich, St. Louis, Mo.) with […] NaCl was pipetted into the mixture of polymer and dichloromethane. […] Release media (supernatant) was sampled periodically and CCL22 concentrations were quantified using an enzyme-linked immunosorbent assay (ELISA) (R&D Systems, Minneapolis, Minn.). […] Measurement of Tear Production—Aqueous tear production was measured with phenol red cotton threads (Oasis Medical, San Dimas, Calif.). Thread was placed in the lateral canthus of the eye for a period of 60 seconds, and wetting was measured in millimeters using a dissecting microscope (Olympus SZX10, Waltham, Mass.). […] The surface of the cornea was evaluated using a dissecting microscope with a fluorescent excitation lamp (Olympus SZX10, Waltham, Mass.). […]

The subject of assay [2] is ConA-induced DED mice. Put plainly: Corneal permeability, corneal fluorescein staining score, ConA-induced DED (Example 1). The format is in vivo, Balb/c mice. The following applies: one week after ConA into lacrimal gland; MPs or soluble CCL22 co-injected with ConA; anti-GITR 500 μg i.p. 5 days prior. The protocol: as §1

B1: Soluble CCL22: recombinant mouse CCL22 chemokine injected in solution with ConA at 2.5 μg in 20 μl (protein, UniProt O88430 25-92, looked up)
C-C motif chemokine 22: GPYGANVEDSICCQDYIRHPLPSRLVKEFFWTSKSCRKPGVVLITVKNRDICADPRQVWVKKLLHKLS
Consider B1, for which the aqueous tear production entry in the assay with ConA-induced DED mice [1] is given as “unable to prevent loss of tear production”. For the same molecule, the “corneal fluorescein staining (corneal permeability)” value with ConA-induced DED mice [2] is reported as “central punctate fluorescein staining was observed”.
